Where a chain is given by its changes, count along the chain named. *1 amine or outer side, *2 acyl side, *3 side chain or, on linkers, in order; H or OH if unused. Where no end group is shown, it is not given here. Side-chain parts run from the residue outwards. [ ]: non-standard residue; d: D form. The star is where a group is joined. C20 diacid = O=C(O)CCCCCCCCCCCCCCCCCCC(=O)*; C18 diacid = O=C(O)CCCCCCCCCCCCCCCCC(=O)*; C16 diacid = O=C(O)CCCCCCCCCCCCCCC(=O)*; γGlu = O=C(O)[C@H](CCC(=O)[*:2])N[*:1]; Desaminohistidyl = O=C(CCc1c[nH]cn1)*; βAsp = O=C(O)[C@H](CC(=O)[*:2])N[*:1]; Palmitoyl = CCCCCCCCCCCCCCCC(=O)*; Trx = NC[C@H]1CC[C@H](C(=O)O)CC1; Dap = NC[C@H](N)C(=O)O; AEEA = NCCOCCOCC(=O)O; Aib = CC(C)(N)C(=O)O; Inp = O=C(O)C1CCNCC1

The record followed here is patent US20110082079A1 (Novo Nordisk, published 2011).

In assay [1] the target is isolated N-terminal extracellular domain of the GLP-1R receptor (nGLP-1R) (UniProt P43220). Put plainly: SPA; displacement of 125I-Exendin-4(9-39) from biotinylated nGLP-1R. Background: In a radioligand displacement assay an active substance lowers the binding of a labelled ligand.
Assay [2] deals with human GLP-1 receptor (human, UniProt P43220 24-463). As to the kind of experiment: cell-based or functional assay.
Assay [3] has as its target T1, human serum albumin (HSA) (human, UniProt P02768 25-609, biotinylated).
T1 construct: also called biotinylated HSA
As to the kind of experiment: competition SPA on biotinylated HSA beads; competitor 125I-labelled acylated GLP-1 analogue.

Sequence of human GLP-1 receptor (P43220 24-463): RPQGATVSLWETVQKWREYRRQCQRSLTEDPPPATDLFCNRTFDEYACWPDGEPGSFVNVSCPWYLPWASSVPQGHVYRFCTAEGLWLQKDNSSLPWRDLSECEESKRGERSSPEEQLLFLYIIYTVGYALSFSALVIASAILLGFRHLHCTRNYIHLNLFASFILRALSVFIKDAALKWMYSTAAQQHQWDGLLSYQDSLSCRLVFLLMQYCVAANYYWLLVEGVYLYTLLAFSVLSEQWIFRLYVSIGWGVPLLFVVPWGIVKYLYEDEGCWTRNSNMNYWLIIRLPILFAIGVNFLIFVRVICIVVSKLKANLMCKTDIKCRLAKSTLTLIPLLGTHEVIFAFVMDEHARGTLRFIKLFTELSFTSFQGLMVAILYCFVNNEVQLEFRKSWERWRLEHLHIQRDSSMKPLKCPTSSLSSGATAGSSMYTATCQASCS
Sequence of isolated N-terminal extracellular domain of the GLP-1R receptor (nGLP-1R) (P43220 24-145 limits assumed): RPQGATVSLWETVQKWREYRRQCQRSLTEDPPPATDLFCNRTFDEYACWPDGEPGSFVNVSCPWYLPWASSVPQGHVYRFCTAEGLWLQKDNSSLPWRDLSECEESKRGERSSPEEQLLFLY

The IC50 is the concentration that inhibits the measured activity by half. Lower therefore signals greater potency. Turning to Liraglutide (peptide), in assay [1], the IC50 amounted to 1500 nM. The molecule further yielded a Potency [EC50/nM], cAMP formation in assay [2] of 0.1 nM.
The EC50 is the concentration giving half of the maximal effect. A lower EC50 goes with an effect from little substance. “N-epsilon31{2-(2-{2-[2-(2-{2-[4-Carboxy-4-(17-carboxy-heptadecanoylamino)butyrylamino]ethoxy}ethoxy)acetylamino]ethoxy}ethoxy)acetyl}-[Aib8,Glu22,Val25,Arg26,Lys31,Arg34,Arg35,Arg37)]GLP-1(7-37)yl [Arg39,Arg40,Arg41] (peptide)” came in with an EC50 in assay [3] of 800 nM. The molecule further registered a Potency [EC50/nM], cAMP formation in assay [2] of 0.74 nM.

B1: N-alpha37-[2-(2-{2-[2-(2-{2-[(S)-4-Carboxy-4-(17-carboxy-heptadecanoylamino)-butyrylamino]-ethoxy}-ethoxy)-acetylamino]-ethoxy}-ethoxy)-acetyl][Aib8,Glu22,Arg26 … (peptide)
peptide: HXEGTFTSDVSSYLEEQAAREFIAWLVRGRK
modifications: not fully specified; Aib at 8; Lys37 is bound to the peptide through its epsilon amino group (epsilon-Lys37) and acylated at N-alpha with the side chain given in the name
With B1, the EC50 in assay [3] is 200 to 400 nM. In addition, the “Potency [EC50/nM], cAMP formation” value in assay [2] amounted to 0.08 nM.

B2: N-epsilon37-[2-(2-[2-(2-[2-(2-((R)-3-[1-(17-Carboxyheptadecanoyl)piperidin-4-ylcarbonylamino]3-carboxypropionylamino)ethoxy)ethoxy]acetylamino)ethoxy]ethoxy)ace … (peptide)
peptide: B1 peptide with H1X, X2A, F22X
modifications: desamino-histidine at 7; m-CF3-phenylalanine at 28; residue 37 acylated at N-epsilon with the side chain given in the name; C-terminal amide
Molecule B2 had an EC50 in assay [3] of 1500 to 2000 nM. The “Potency [EC50/nM], cAMP formation” value in assay [2] is 0.35 nM.
In assay [3], H[Aib]EGTFTSDVSSYLEEQAAREFIK([AEEA-AEEA-βAsp-Inp-C20 diacid])WLVKGRG had an EC50 of 200 to 400 nM. For the same molecule, the “Potency [EC50/nM], cAMP formation” value in assay [2] was 0.52 nM.
In the same order, the values of H[Aib]EGTFTSDVSSYLEEQAVREFIAK([AEEA-AEEA-γGlu-C18 diacid])LVRRRR are over 2000 nM and 1.27 nM.
In assay [3], H[Aib]EGTFTSDVSSYLEEQAAREFIAK([AEEA-AEEA-βAsp-Inp-C20 diacid])LVRGRG came in with an EC50 of 200 to 400 nM. Also, the “Potency [EC50/nM], cAMP formation” value in assay [2] was determined as 0.18 nM.

B3: [Aib8,Glu22,Arg26,Glu30,Pro37]GLP-1-(7-37)Lys … (peptide)
peptide: H[Aib]EGTFTSDVSSYLEEQAAREFIEWLVKGRPK
modifications: not fully specified (residue 32); printed as [Aib8,Glu22,Arg26,Glu30,Pro37]GLP-1-(7-37)Lys [2-(2-{2-[4-Carboxy-4-(4-carboxy-4-{4-[4-(16-1H-tetrazol-5-yl-hexadecanoylsulfamoyl)butyrylamino]butyrylamino}butyrylamino)butyrylamino]ethoxy}ethoxy)acetyl]
The molecule B3 returned an EC50 in assay [3] of 150 to 200 nM. For the same molecule, in assay [2], the “Potency [EC50/nM], cAMP formation” value was found to be 0.29 nM.
In assay [3], H[Aib]EGTFTSDVSSYLEEQAAREFIEWLVKGK([AEEA-AEEA-C18 diacid])GE-NH2 had an EC50 of 200 to 400 nM. Further, the “Potency [EC50/nM], cAMP formation” value in assay [2] was found to be 0.22 nM.
Molecule [Desaminohistidyl]AEGTFTSDVSSYLEEQAAREFIEWLVRGRGEK([AEEA-AEEA-γGlu-C18 diacid]) [[desaminoHis7, Glu22, Arg26, Glu30, …] came in with an EC50 in assay [3] of 1500 to 2000 nM. Besides, the “Potency [EC50/nM], cAMP formation” value in assay [2] was 0.04 nM.
In the case of [Desaminohistidyl]AEGTFTSDVSSYLEEQAAREFIEWLVRGK([AEEA-AEEA-γGlu-C16 diacid])GEK, in assay [3], the EC50 is over 2000 nM. Also, the “Potency [EC50/nM], cAMP formation” value in assay [2] came out at 0.21 nM.
H[Aib]EGTFTSDVSSYLEEQAAREFIAWLVR[Aib]RK([AEEA-AEEA-γGlu-C18 diacid]): the EC50 in assay [3] was in the range of 100 to 150 nM. In addition, the “Potency [EC50/nM], cAMP formation” value in assay [2] is 0.06 nM.

B4: N-epsilon37-{2-(2-(2-(2-[2-(2-(4-(hexadecanoylamino)-4-carboxybutyrylamino)ethoxy)ethoxy]acetyl)ethoxy)ethoxy)acetyl)}-[desaminoHis7,Glu22,Arg26, … (peptide)
peptide: [Desaminohistidyl]AEGTFTSDVSSYLEEQAAREFIEWLVRGRK([AEEA-AEEA-γGlu-Palmitoyl])-NH2
SMILES: CCCCCCCCCCCCCCCC(=O)N[C@@H](CCC(=O)NCCOCCOCC(=O)NCCOCCOCC(=O)NCCCC[C@H](NC(=O)[C@H](CCCNC(=N)N)NC(=O)CNC(=O)[C@H](CCCNC(=N)N)NC(=O)[C@@H](NC(=O)[C@H](CC(C)C)NC(=O)[C@H](Cc1c[nH]c2ccccc12)NC(=O)[C@H](CCC(=O)O)NC(=O)[C@@H](NC(=O)[C@H](Cc1ccccc1)NC(=O)[C@H](CCC(=O)O)NC(=O)[C@H](CCCNC(=N)N)NC(=O)[C@H](C)NC(=O)[C@H](C)NC(=O)[C@H](CCC(N)=O)NC(=O)[C@H](CCC(=O)O)NC(=O)[C@H](CCC(=O)O)NC(=O)[C@H](CC(C)C)NC(=O)[C@H](Cc1ccc(O)cc1)NC(=O)[C@H](CO)NC(=O)[C@H](CO)NC(=O)[C@@H](NC(=O)[C@H](CC(=O)O)NC(=O)[C@H](CO)NC(=O)[C@@H](NC(=O)[C@H](Cc1ccccc1)NC(=O)[C@@H](NC(=O)CNC(=O)[C@H](CCC(=O)O)NC(=O)[C@H](C)NC(=O)CCc1c[nH]cn1)[C@@H](C)O)[C@@H](C)O)C(C)C)[C@@H](C)CC)C(C)C)C(N)=O)C(=O)O
B4: the “Potency [EC50/nM], cAMP formation” value in assay [2] was found to be 0.16 nM.

B5: N-epsilon31-[2-(2-{2-[2-(2-{2-[(S)-4-Carboxy-4-(17-carboxyheptadecanoylamino)butyrylamino]ethoxy}ethoxy)acetylamino]ethoxy}ethoxy)acetyl][Aib8,Glu22,Val25,Arg26 … (peptide)
peptide: H[Aib]EGTFTSDVSSYLEEQAVREFIAK([AEEA-AEEA-γGlu-C18 diacid])LVKKK-NH2
modifications: N-terminus assumed
SMILES: CC[C@H](C)[C@H](NC(=O)[C@H](Cc1ccccc1)NC(=O)[C@H](CCC(=O)O)NC(=O)[C@H](CCCNC(=N)N)NC(=O)[C@@H](NC(=O)[C@H](C)NC(=O)[C@H](CCC(N)=O)NC(=O)[C@H](CCC(=O)O)NC(=O)[C@H](CCC(=O)O)NC(=O)[C@H](CC(C)C)NC(=O)[C@H](Cc1ccc(O)cc1)NC(=O)[C@H](CO)NC(=O)[C@H](CO)NC(=O)[C@@H](NC(=O)[C@H](CC(=O)O)NC(=O)[C@H](CO)NC(=O)[C@@H](NC(=O)[C@H](Cc1ccccc1)NC(=O)[C@@H](NC(=O)CNC(=O)[C@H](CCC(=O)O)NC(=O)C(C)(C)NC(=O)[C@@H](N)Cc1c[nH]cn1)[C@@H](C)O)[C@@H](C)O)C(C)C)C(C)C)C(=O)N[C@@H](C)C(=O)N[C@@H](CCCCNC(=O)COCCOCCNC(=O)COCCOCCNC(=O)CC[C@H](NC(=O)CCCCCCCCCCCCCCCCC(=O)O)C(=O)O)C(=O)N[C@@H](CC(C)C)C(=O)N[C@H](C(=O)N[C@@H](CCCCN)C(=O)N[C@@H](CCCCN)C(=O)N[C@@H](CCCCN)C(N)=O)C(C)C
notes: GLP-1(7-36) = residues 1-30 of the entry
B5: the EC50 in assay [3] was 400 to 800 nM. Besides, in assay [2], the “Potency [EC50/nM], cAMP formation” value stood at 0.14 nM.
As for [Desaminohistidyl]AEGTFTSDVSSYLEEQAAREFIEWLVRGRK([AEEA-AEEA-γGlu-Trx-C20 diacid]), the “Potency [EC50/nM], cAMP formation” value in assay [2] amounted to 0.66 nM.

B6: N-epsilon31-{2-(2-{2-[2-(2-{2-[4-Carboxy-4-(17-carboxy-heptadecanoylamino)butyrylamino]ethoxy}ethoxy)acetylamino]ethoxy}ethoxy)acetyl}-N-beta34-(2-(bis-carboxym … (peptide)
peptide: H[Aib]EGTFTSDVSSYLEEQAVREFIAK([AEEA-AEEA-γGlu-C18 diacid])LV[Dap](2‑(bis-carboxymethylamino)acetyl)-NH2
notes: GLP-1(7-34) = residues 1-28 of the entry
In the case of B6, in assay [3], the EC50 lay within 150 to 200 nM. For the same molecule, in assay [2], the “Potency [EC50/nM], cAMP formation” value is 0.34 nM.
